Broadly, the Km is the substrate concentration at which the rate is half of its maximum. What is called kcat is the number of substrate molecules converted per active site and unit of time at saturation. By kcat/Km is commonly meant the turnover number divided by the Michaelis constant.

Positions count from the first letter of the chain named. In names and notes the source's numbering stands.

Substrate in the data set: CCn1c(=NN=c2sc3cc(S(=O)(=O)O)ccc3n2CC)sc2cc(S(=O)(=O)O)ccc21
The data set can be described thus: purified protein. It is filed as biochemical, Pleurotus ostreatus. The conditions noted are these: 50 μL of 1 mM H2O2 in 200 μL (0.25 mM), 0.1 M citric acid–0.2 M Na2HPO4 pH 3.4, ambient temperature.

B1: DyP4 (dye-decolorizing peroxidase 4) (Pleurotus ostreatus PC15) (protein)
chain: MTTPAPPLDLNNIQGDILGGLPKRTETYFFFDVTNVDQFKANMAHFIPHIKTSAGIIKDREAIKEHKRQKKPGLVPMAAVNVSFSHLGLQKLGITDDLSDNAFTTGQRKDAEILGDPGSKNGDAFTPAWEAPFLKDIHGVIFVAGDCHGSVNKKLDEIKHIFGVGTSHASISEVTHVRGDVRPGDVHAHEHFGFLDGISNPAVEQFDQNPLPGQDPIRPGFILAKENGDSRAAARPDWAKDGSFLTFRYLFQMVPEFDDFLESNPIVLPGLSRKEGSELLGARIVGRWKSGAPIEITPLKDDPKLAADAQRNNKFDFGDSLVRGDQTKCPFAAHIRKTYPRNDLEGPPLKADIDNRRIIRRGIQFGPEVTSQEHHDKKTHHGRGLLFVCYSSSIDDGFHFIQESWANAPNFPVNAVTSAGPIPPLDGVVPGFDAIIGQKVGGGIRQISGTNPNDPTTNITLPDQDFVVPRGGEYFFSPSITALKTKFAIGVASPAPHSQAPISA
notes: DyP4 without OsmY fusion, pET-24a(+)-DyP4 (NdeI/EcoRI), codon-optimized, untagged, E. coli BL21 (DE3), ion-exchange and SEC purified; forward primer encodes MTTPAPPL
In the case of B1, the Km was found to be 0.895 ± 0.065 mM, the kcat was determined as 3.86 ± 0.08 s⁻¹ and the kcat/Km amounted to 4310 ± 410 M⁻¹ s⁻¹.

B2: DyP4 (dye-decolorizing peroxidase 4) (Pleurotus ostreatus PC15; I56V/K109R/N227S/N312S) (protein)
chain: B1 chain with I56V, K109R, N227S, N312S
notes: as for B1
For the protein B2, for the setting “variant 4D4”, the Km is 0.390 ± 0.059 mM, the kcat amounted to 4.52 ± 0.15 s⁻¹ and the kcat/Km is 11600 ± 2140 M⁻¹ s⁻¹.

B3: DyP4 (dye-decolorizing peroxidase 4) (Pleurotus ostreatus PC15; I56V/K109R/N312S) (protein)
chain: B1 chain with I56V, K109R, N312S
notes: as for B1
Turning to B3, for the setting “variant 3F6”, the Km worked out at 0.427 ± 0.055 mM, the kcat worked out at 5.02 ± 0.15 s⁻¹ and the kcat/Km came to 11800 ± 1860 M⁻¹ s⁻¹.

The values above are taken from PMC6544594, “Accelerated directed evolution of dye-decolorizing peroxidase using a bacterial extracellular protein secretion system (BENNY)” (Bioresources and Bioprocessing, 2019).
